The values that follow come from a protein production outcome set (Wang et al. 2014).

A short description of this series: label from the status in PepcDB records.

On to “MKYIIIGLGNYGHVLAEELSTLGHEVIGADLDEGRVDSIKDKIATAFVIDATDEQSLSVLPLNSVDMVIVAIGENFGASIRVVAMLKQKQVKHIYARAIDGVHKAVLEAFGLEKILTPEEDAARSLVQLLDFGTKMETFRVDSEYYVVKFNVPEKFVGYFVNELNLDEEFNLKLIGLKRSNTIKNCLGISLVEHKVVNELPEDAKIRPDDVLVCYGKYSDFQKLWKALLEHHHHHH”, for which the protein production result is on record as “not failed”.
As to “MKYISPGFVDAHSHIGMIPDGLEWEFQEANDFYSPIAPHLRAVDGFDPYDEAFKEAIAGGVTTVATGPGSANVMGGIGLLAKTYEEGFEKIIKPEAFIKMALGPKRPREYKSKYPYPTTRMGTVALMRTWFKRAREFMEGKIKTDNIDEEEIEMLRLLARALKREIQVKIHLSTSPDEIYAAIRIIKEFNLNATIDHAFGSQLVADMLSREGIPVIYGPPMITRIASFFRYVDDKAPVLLFKKGVNVSIMTDHPVLPEKHLRLLAAVVARNGLSLDDALKLITINPAKALGIDRFVGSLEHHHHHH”, the protein production result was “failed”.
As to “MKYIVAVNASPRSGWNTSQLVEAAAKGAKEAGATVDIIDLYKLEPFQGCISCFGCKLPRTFGRCVSKDGLSEVLDKIRKADGLILGSPNYLGNLTAGFRALYERLIFQSLTYNKERPNCNEHMIPVLLITTSNCDESIYDKIGYTSMLEGYKQMLERFVGPLEHHHHHH”, the protein production result is “failed”.
Consider “MKYKAAIFDMDGTILDTSADLTSALNYAFEQTGHRHDFTVEDIKNFFGSGVVVAVTRALAYEAGSSRESLVAFGTKDEQIPEAVTQTEVNRVLEVFKPYYADHCQIKTGPFPGILDLMKNLRQKGVKLAVVSNKPNEAVQVLVEELFPGSFDFALGEKSGIRRKPAPDMTSECVKVLGVPRDKCVYIGDSEIDIQTARNSEMDEIAVNWGFRSVPFLQKHGATVIVDTAEKLEEAILGE”, for which the protein production result was “not failed”.
In the case of “MKYPIVPLTKFGLFRAQTYAVLKRPYLVTALVSYFMVALLVIIYLNKAPSFTSDMEMVLPGTGSSNSVSLDNVGQVVSQTNTPFSGGGFNPRVNYKEMLSSRGVRARAAKKLHLSLEDLGEPRIKLTEQTSIISLEMSANGQELAQAKTLALYESLQDELNNLRADEVLRRDQSIEQVLDRYRERMNITRNAIVDFQQRSIVVSTDQMDQLVRTLSGVREKHLYVKAETKQLQEYIYQLSDELGVSPKLAGQAFALQSDVEFRAYITELKESITQLTEYSSRWGVNHPKVKAQQKRLNFTRISINERSSQMYGVNSNEIFNSLNLDLNPKRSELFADLIDAYAKQKGQESMLEDLGRSALHLGDQLKIYSREIVELERLQREFNMAEAIFTSAAARLEASKSDVFASYPVLQMLTTPSYPMKQSSPKNIIAFIGAITGFIFITLGLIILSQRNKLIQIILKKEETTSSNS”, the protein production result was “failed”.
With “MKYRFIDHTADIAFEVYGSNLRELFENAALAFYDAFVDTSGIGIEREVGVECEGEDVEITLYRWLNELLYLFDTEFFAAKDVEVEVEEGDGVKASGKLRGGRFSAEMVKVEPKAITLHKFRVEKTDKGYVAFVVVDI” the entry was “failed”; with “MKYTQSFCFVSVIVLSSSVHLHGQNNKMNVLLIIADDMRPELGCYGIEDIVTPRLDSLARYATVFQNAYCNIPVSGASRASLFTGMYPRYPNRFTAFDASAEKDCPEALSLPECFKKNGYYVVSNGKVFHNITDHADSWSEAPWRVHPDGYGKDWAEYNKWELWQNEESSRYVHPKTLRGPFCESADVADTTYIDGRVAQKTIADLRRLHKKEKPFFLACGFWKPHLPFNAPKKYWDLYRREEIHLAQNPYRPKALPKQVTSSGEIRGYGKFVTTKDETFQREAKHGYYACVSYIDAQIGLILDELDRLGLSENTIVVILGDHGWHLGEHGFWGKHNLMNHATRAPLIVRVPHCRGGKAKGIVEFVDIYPTLCELCGVPMPKDQLQGKSFVPILQDSGKKTKQYAFIQWKGGYNIVSEQYSSTIWLQGDSVVARMIFDRQLDASENENKVHCPYLSRERDKLEAQIKIRKSQLLEHHHHHH”, “failed”; with “MKYTVYLFDFDYTLADSSRGIVTCFRSVLERHGYTGITDDMIKRTIGKTLEESFSILTGITDADQLESFRQEYSKEADIYMNANTILFPDTLPTLTHLKKQGIRIGIISTKYRFRILSFLRNHMPDDWFDIIIGGEDVTHHKPDPEGLLLAIDRLKACPEEVLYIGDSTVDAGTAAAAGVSFTGVTSGMTTAQEFQAYPYDRIISTLGQLISVPEDKSGCPL”, “not failed”.
With “MLAAGEGKRMGACKPLLPLGASTVLAHVAKTLLPAINGPLVVVTGHHGDAVTAEALRLSLETAENTTPQDGMFSSVRTGIAHIVGRVDGVLVLPADIPFVRTATCALVVEAFRRHRAAVTYPTLCGERGHPPLLDADTMRAVLASSGDGGLRGVLLALERQGGTTHDVAVADEGIVTDMDTPADHAQLVARHPLRHIPTPREREALLEMAGTPARVRAHCRMVARAALAMAAHLEATRRGFISPFARQSAPHGISTSGAHAEPRSVPASTTTHAVHAEGNTTLPHTATAHVACPPPDVTTGPMPTCQPGHMPDHMPGTARDAAQQAPAATASPQRLDRPLIHAAATLHDICKGTQRHEAAGGALLTRHGFPEVGSIIAAHRDIAPQAGPEIDEAALVMLADKYVRGVSLIPVEERFDERLREWAHRPDVACDIAARKARVLMVRDLFESETATELFPLLQRKVRRGTFLEHHHHHH” the entry was “failed”.
With “MLACAIALRLAAAVAAPVDSPTVDVAPPAPAEVAPPGPGRTAAPDLSAPPPPPADRPGPWRVYGAAAAGAAASDVLFAGIFAIGMVQLFGDLWDGEASADAGGLTLALVGLGGFLAVTPAVTVWAAQRVAGRERTAAAYWACFGVRLLGFAAANAFPAATLATELVLAPWVVSRIVMSGAPAATPLRPEVPAPAGADGPATRARPLRDPALAWR” the entry was “failed”; with “MLAERRPAVTPTDGAQVLKALDAQAALLPYALGVFAVSLPLFVWVGSFAANPLWMTASFAIFAINWGVFYAAVSWIRDEPSQDLARRARVQVLCGVLWALAVMQISAFAHNAGPARETLLLLATAGAVLCAFFAAPYLPGLLIIAPLAAAGPLLAQFSSADSRHAGELTFGATALAMTLALILNRMFRRQHDLAISHEQLVVERLRVLEAAERTARSKSDIVATLSHEIRNGLTGVTHVLAAAAGRGGRAAPSREQLNAALDAAQDLIAVLNATLDSETAESGRLQVDARPFDPVRLVQDLALLDKPHAAAKGLELSVHVDPLLRERAKGAAIADALRTRQIVSNLLGNAVKYTVRGRVEVRLELRDDRIAIEVADTGPGLSTEELEQAFEPFRRVERTGAGVNGAGLGLSLSRQLARLMGGALEARSAVGVGSCFTLTLPFDLGAKDEQAEALDTAVAEASGAPRALRVLIAEDDALNAAMLRAVLEQLGHQVVHAANGRRAADLAKIAEFDLLMLDHRMPVMDGPEAASSLRQGDGPNRQTPIVAVIDGDAEEAAEFLEAGAEIVLRKPVSVAGVARALADAAALERTDPAKVAA”, “failed”; with “MLAIRRGASMPPLNRSDDLMPGIDEIPERRDEVSLGDLLLEVLRFYQQFGRLLIPLAVLCGVLAGVVVATRPLYAVTALLETPQMSLEQWRKLQPMLADRQLVAASLASMTELPPEQRERLQRAFVLKKYWDTRVTYRSAVERDDIRQQVNIDAKSVGALGLEVSLYARDDAAANQQLDAIAQHVRQVVLWGGLRDYLDSLRQQTLEQRPQLQIDQIQQRYAIEQNERQAADMQQLLERYPELRRNEVNTVVSVGDGGGRYLSPLAQIVALQSTIAGTRTTLRQVERELEQLDGKQRFLARVDQRAPGLHLGRALADWVQSCRRAVFGSGTPSGSALSQVASEIDLALSQQRWRAQLVRYRAIPALSPAPVPSRRPALVALAVFLGVLLVASLGLAMYVIARRNGDRHASWSAHADPLFAWLPQRMRGLLLGPTDARPLGSG”, “failed”.
For “MLAKVLKKRGAVLRGDFVLSSGRRSSVYIDMRRLLGDESSYSVALDLLLEVGGQDLARSSAVIGVATGGLPWAAMLALRLSKPLGYVRPERKGHGTLSQVEGDPPKGRVVVVDDVATTGTSIAKSIEVLRSNGYTVGTALVLVDRGEGAGELLARMGVRLVSVATLKTILEKLGWGGE”, the protein production entry is “not failed”.
With “MLAPERIHPALWRATQLAHGPTRKLPTGYADLSAQLPGGGWPLGALVELLLPQPGSGEIRLLRPALAQLEARRAIALVQPPHAPHIASWASWRLDPRQLLWVAPERPADALWAAEQILKAGSCAALLCWLPQVRPESLRRLHLAAQGGDALFVALRPAAAEQHASPAVLRLALAPAPGGLSIRIVKRRGPACEHPVHVGLEAGAGLSVFPAPHAPLDRRLPAQPVAGRRTPALVSLEHHHHHH” the entry was “not failed”.
